In PMC11245488 one finds stoichiometry N data, which are given here for one substance.

The assay has as its target extracellular domain of human AXL (corresponding to sAXL) fused to C-terminal Fc (UniProt P30530). As to the kind of experiment: SEC-MALS; human sAXL-Fc in solution; protein-conjugate analysis (protein 140 kDa, glycans ~25 kDa, total 165 kDa); conditions in the Supplemental Material.

“extracellular domain of human AXL (corresponding to sAXL) fused to C-terminal Fc (from UniProt P30530 26-451) (Fc fusion)” had a stoichiometry N of 2.
